# Test results taken from publication PMC7899689.
# Tests used:
# [1] = target: human recombinant HER2 protein (extracellular domain Thr23-Thr652 of human ERBB2 with His tag) (human) (UniProt P04626); experiment: SEC-MALS
# [2] = target: human recombinant HER2 protein (extracellular domain Thr23-Thr652 of human ERBB2 with His tag) (human) (UniProt P04626); experiment: SEC
substance,measurement,setting,value
trastuzumab stressed at 45°C for 10 days (45C10d) (antibody),percent of antibody unbound (mixed 1:1),[1],40%
same,percent of antibody unbound (mixed 1:1),[2],40%
